Measurements: patent US20150322137A1
Like-named read-outs stand apart in the source and are kept apart here.

Assays:
[1] = molecular target: FP-TM(-)-His, His-Tag-added hMPV (JPS02-76) FP lacking the transmembrane region (amino acid residues 491 to 539 of FP) (human metapneumovirus, strain JPS02-76 (type B1)) (UniProt Q6WB98)
[2] = molecular target: F protein of human metapneumovirus strain JPS02-76 (type B1), on infectious virus (human metapneumovirus, strain JPS02-76 (type B1)) (UniProt Q6WB98); experiment: cell-based or functional assay
[3] = molecular target: F protein of human metapneumovirus strain JPS03-178 (type A2), on infectious virus (human metapneumovirus, strain JPS03-178 (type A2)); experiment: cell-based or functional assay
[4] = molecular target: F protein of human metapneumovirus strain JPS03-180 (type A1), on infectious virus (human metapneumovirus, strain JPS03-180 (type A1)); experiment: cell-based or functional assay
[5] = molecular target: F protein of human metapneumovirus strain JPS05-21 (type B2), on infectious virus (human metapneumovirus, strain JPS05-21 (type B2)); experiment: cell-based or functional assay
[6] = molecular target: FP-TM(-)-His, His-Tag-added hMPV (JPS02-76) FP lacking the transmembrane region (amino acid residues 491 to 539 of FP) (human metapneumovirus, strain JPS02-76 (type B1)) (UniProt Q6WB98); experiment: SPR, Biacore T-200; antibody captured by anti-human IgG, FP-TM(-)-His as analyte

mouse anti-hMPV antibody mAb338
Kd [1]: < 10 nM
IC50, cell-to-cell spread inhibitory activity (LLC-MK2 cells stably expressing TMPRSS2) [2]: 0.0215 µg/mL
IC50, neutralizing activity (hMPV infection of LLC-MK2 cells; GraphPad Prism 6) [2]: 0.281 µg/mL
IC60, neutralizing activity (hMPV infection of LLC-MK2 cells; GraphPad Prism 6) [2]: 0.338 µg/mL
IC90, cell-to-cell spread inhibitory activity (LLC-MK2 cells stably expressing TMPRSS2) [2]: 0.0938 µg/mL
IC90, neutralizing activity (hMPV infection of LLC-MK2 cells; GraphPad Prism 6) [2]: 0.772 µg/mL
IC50, neutralizing activity (hMPV infection of LLC-MK2 cells; GraphPad Prism 6) [3]: 0.18 µg/mL
IC60, neutralizing activity (hMPV infection of LLC-MK2 cells; GraphPad Prism 6) [3]: 0.239 µg/mL
IC90, neutralizing activity (hMPV infection of LLC-MK2 cells; GraphPad Prism 6) [3]: 0.856 µg/mL
IC50, neutralizing activity (hMPV infection of LLC-MK2 cells; GraphPad Prism 6) [4]: 0.125 µg/mL
IC60, neutralizing activity (hMPV infection of LLC-MK2 cells; GraphPad Prism 6) [4]: 0.16 µg/mL
IC90, neutralizing activity (hMPV infection of LLC-MK2 cells; GraphPad Prism 6) [4]: 0.498 µg/mL
IC50, neutralizing activity (hMPV infection of LLC-MK2 cells; GraphPad Prism 6) [5]: 0.221 µg/mL
IC60, neutralizing activity (hMPV infection of LLC-MK2 cells; GraphPad Prism 6) [5]: 0.261 µg/mL
IC90, neutralizing activity (hMPV infection of LLC-MK2 cells; GraphPad Prism 6) [5]: 0.547 µg/mL
Kd [6]: 0.531 nM
koff [6]: 0.000228 s⁻¹
kon [6]: 434000 M⁻¹ s⁻¹
